Substrate: Cc1cc(Nc2nc(N[C@H](C)c3ncc(F)cn3)ncc2Cl)n[nH]1
Description: Inhibition of JAK2 using Km ATP concentration

B1: Tyrosine-protein kinase JAK2 (Homo sapiens), O60674 (protein)
chain: MGMACLTMTEMEGTSTSSIYQNGDISGNANSMKQIDPVLQVYLYHSLGKSEADYLTFPSGEYVAEEICIAASKACGITPVYHNMFALMSETERIWYPPNHVFHIDESTRHNVLYRIRFYFPRWYCSGSNRAYRHGISRGAEAPLLDDFVMSYLFAQWRHDFVHGWIKVPVTHETQEECLGMAVLDMMRIAKENDQTPLAIYNSISYKTFLPKCIRAKIQDYHILTRKRIRYRFRRFIQQFSQCKATARNLKLKYLINLETLQSAFYTEKFEVKEPGSGPSGEEIFATIIITGNGGIQWSRGKHKESETLTEQDLQLYCDFPNIIDVSIKQANQEGSNESRVVTIHKQDGKNLEIELSSLREALSFVSLIDGYYRLTADAHHYLCKEVAPPAVLENIQSNCHGPISMDFAISKLKKAGNQTGLYVLRCSPKDFNKYFLTFAVERENVIEYKHCLITKNENEEYNLSGTKKNFSSLKDLLNCYQMETVRSDNIIFQFTKCCPPKPKDKSNLLVFRTNGVSDVPTSPTLQRPTHMNQMVFHKIRNEDLIFNESLGQGTFTKIFKGVRREVGDYGQLHETEVLLKVLDKAHRNYSESFFEAASMMSKLSHKHLVLNYGVCVCGDENILVQEFVKFGSLDTYLKKNKNCINILWKLEVAKQLAWAMHFLEENTLIHGNVCAKNILLIREEDRKTGNPPFIKLSDPGISITVLPKDILQERIPWVPPECIENPKNLNLATDKWSFGTTLWEICSGGDKPLSALDSQRKLQFYEDRHQLPAPKWAELANLINNCMDYEPDFRPSFRAIIRDLNSLFTPDYELLTENDMLPNMRIGALGFSGAFEDRDPTQFEERHLKFLQQLGKGNFGSVEMCRYDPLQDNTGEVVAVKKLQHSTEEHLRDFEREIEILKSLQHDNIVKYKGVCYSAGRRNLKLIMEYLPYGSLRDYLQKHKERIDHIKLLQYTSQICKGMEYLGTKRYIHRDLATRNILVENENRVKIGDFGLTKVLPQDKEYYKVKEPGESPIFWYAPESLTESKFSVASDVWSFGVVLYELFTYIEKSKSPPAEFMRMIGNDKQGQMIVFHLIELLKNNGRLPRPDGCPDEIYMIMTECWNNNVNQRPSFRDLALRVDQIRDNMAG
Km: 0.031 µM

Source: ChEMBL document CHEMBL1649076, “Discovery of 5-chloro-N2-[(1S)-1-(5-fluoropyrimidin-2-yl)ethyl]-N4-(5-methyl-1H-pyrazol-3-yl)pyrimidine-2,4-diamine (AZD1480) as a novel inhibitor of the Jak/Stat pathway” (J Med Chem, 2011)
